Reference: patent US10308692B2, “Variants of GAL2 transporter and their uses” (Johann Wolfgang Goethe-Universität Frankfurt, priority 2014, dated 2019)
Changes are numbered by the printed parent chain. Names and notes keep the numbering of the source.

How the values were obtained:
Assay type in all cases: cell-based, Saccharomyces cerevisiae
[1] = system: AFY10; test: Growth test in liquid media and fermentation; settings: for xylose concentration of the supernatant decreased during the fermentation to: HPLC
Description: The strain AFY10, which was transformed with YEp181_pHXT7-opt.XI_Clos and p426H7-GAL2_wt (WT) or p426H7-GAL2_ep3.1 (ep3.1) or p426-GAL2_N376Y+M435I (M435I), was incubated in 150 ml SCE-ura-leu+G418. This was the preculture which was used to start the fermentation with an OD600 of 0.6 in 30 ml SC-ura-leu with 0.6% xylose (A) or with 0.6% xylose with 2% glucose (B). The cultures were incubated at 180 rpm and 30° for seven days. Samples were taken for growth measurements as well as metabolite analysis.
For analysis of metabolites cell-free samples (5-10 min, 4° C., 16000×g) were mixed with 1/9 volumes of 50% (w/v) 5-sulfosalicylic acid and centrifuged (5-10 min, 4° C., 16000×g). The supernatant was analyzed in an UHPLC+ system by Thermo Scientific (Dionex UltiMate 3000) equipped with a HyperREZ XP Carbohydrate H^+8 μm column and a refractive index detector (Thermo Shodex RI-101). Separation was carried out at column temperature of 65° C. with 5 mM sulfuric acid as mobiles phase with a flow rate of 0.6 ml/min. Chromeleon 6.80 software was used to control the system and to analyze the data. Five standards (mixtures of D-glucose, D-xylose, xylitol, acetate, glycerol and ethanol with concentrations of 0.01-3% (w/v)) were analyzed for quantification of the different compounds.
To investigate the growth difference and the xylose consumption of the mutants in comparison to the wild type and the error prone mutant, an anaerobic growth test in liquid media was carried out. For this purpose AFY10 cells were co-transformed with the vector with the respective GAL2 sequence and YEp181_pHXT7-opt.XI_Clos and inoculated in SCE-ura-leu+G418 to have an OD600 of 0.6 in 30 ml SC-ura-leu with 0.6% xylose or with 0.6% xylose with 2% glucose. The OD600 was measured regularly during five days, the growth rate μ was determined and the metabolites of the samples were examined, whereby the samples were diluted 1:5 for this reason.

[2] = system: EBY.VW4000; test: Xylose uptake assay with radioactively labelled xylose; settings: for Vmax: xylose uptake, Michaelis-Menten fit (GraphPad Prism), three replicates, figures give velocity in nmol xylose per minute per milligram cell dry mass
Text: FIG. 7: Xylose uptake assay of Gal2_N376Y, N376Y+M435I and Gal2 wild type in EBY.VW4000 (three independent replicates). The uptake velocity is shown in nmol xylose per minute per milligram cell dry mass.
FIG. 8: Xylose uptake assay of Gal2_N376F, N376F+M435I and Gal2 wild type in EBY.VW4000 (three independent replicates). The uptake velocity is shown in nmol xylose per minute per milligram cell dray mass.
Sugar uptake assays were done as described by Bisson et al. (Bisson and Fraenkel, 1983) with modifications according to Walsh et al. (Walsh et al., 1994).
Transformants of strain EBY.VW4000 were grown in selective YEPE to an OD of 1.1-1.6, harvested by centrifugation and washed twice in ice-cold uptake-buffer (RT, 3 min, 3000×g). Cells were kept on ice from here on. The cell pellet was resuspended in ice-cold uptake-buffer to a concentration of 60 mgww/ml and aliquoted to 110 μl. One cell suspension aliquot and one sugar solution were incubated in a water bath at 30° C. for 4-5 min. 100 μl of the cell suspension were pipetted to the sugar solution (50 μl), mixed briefly by pipetting and incubated for 5 (D-[U-^14C]-glucose) or 20 sec (D-[1-^14C]-xylose). The uptake reaction was stopped by transferring 100 μl of the mixture into 10 ml ice-cold quenching-buffer, which was immediately filtered through a Durapore membrane filter (0.22 μm pore size, Millipore). The filter was washed twice with 10 ml ice-cold quenching-buffer, transferred to a scintillation vial containing 4 ml scintillation cocktail (Rotiszint eco plus, Roth) and shaken thoroughly. Additionally to this filter sample (cpmfilter), 10 μl of each reaction were transferred directly to a scintillation vial with 4 ml scintillation cocktail for determination of the total counts in the reaction (cpmtotal). To determine a value for sugar that is bound unspecifically to the cell surface or the filter (cpmblank) a few samples of 33,3 μl sugar solution and 66,6 μl cell suspension were mixed in 10 ml icecold quenching buffer and treated as described above. Radioactivity of all vials was analysed in an Wallac 1409 liquid scintillation counter.
Stocksolutions of 2M, 500 mM or 20 mM glucose or xylose (in H2O) were used to prepare the sugar solutions for the assays (threefold of the desired concentration in the uptake reaction (S, substrate concentration), 50 μl aliquots). Uptake was measured at sugar concentrations 0.2, 1, 5, 25 and 100 mM for glucose and 1, 5, 25, 66, 100, 200 and 500 mM for xylose. Inhibition of xylose uptake by glucose was measured at 25, 66 and 100 mM xylose with additional 25 and 100 mM unlabelled glucose. Sugar solutions contained 0.135 to 0.608 μCi of D-[U-^14C]-glucose (290-300 mCi/mmol) or D-[1-^14C]-xylose (55 mCi/mmol) (American Radiolabeled Chemicals Inc., St. Louis, Mo., USA).
The amount of sugar (Asugar in nmol) taken up during the incubation time (t, in seconds) at a certain sugar concentration (S, in mM): Asugar=((cpmsample−cpmblank)/(cpmtotal·10))·S·100 μl
Transport velocity (in nmol·min^−1·mgww^−1) calculated per milligrams of cell (m, in mgww): V=(Asugar·60 s)/(t·m)
Calculation of Km (Michaelis constant), Vmax (maximal initial uptake velocity) and Ki (inhibitor constant for competitive inhibition) was done by nonlinear regression analysis and global curve fitting in Prism 5 (GraphPad Software, Inc.) with values of three independent measurements.
Xylose uptake of Gal2_N376F, N376F+M435I, N376Y und N376Y+M435I was characterized with a sugar uptake assay. The relevant plasmids were transformed in strain EBY.VW4000. Cells were cultivated in SCM-ura until they reached the exponential growth phase (OD600˜0.6). Then cells were harvested, concentrated to the same OD600 (OD600 35-40), separated into different aliquots and stored on ice.
Three uptake assays (in tripicates) were performed with different concentrations of radioactively labelled xylose. Data were collected and fittet with GraphPad Prism according to Michaelis Menten (FIGS. 7 and 8).

[3] = system: AFY10; test: Serial dilution drop test on xylose and xylose-glucose media; settings: for growth on low xylose: 0.2% (2 g/l) xylose; for growth on high xylose: 2% (20 g/l) xylose, compared within the same drop test
Description: The transformants were cultivated in 5 ml SCE-ura-leu with 2% ethanol at 30°, washed with water and adjusted to an OD600 of 1. Thereof it followed a serial dilution. 5 μl were dropped onto the respective media and it was incubated for five days at 30°. As a control for the dilution SCE-ura-leu with 2% ethanol was taken. The cells of the mutated transporters were dropped onto SCX-ura-leu with 0.2% and 2% D-xylose, as well as SC-ura-leu with 1% D-xylose with 4% D-glucose and SC-ura-leu with 0.2% D-xylose and 2% D-glucose to test their functionality. Furthermore the wild type and Gal2_ep3.1 were used for comparison.
FIG. 5: Drop test of Gal2_M435I in AFY10 after five days at 30°. Several dilutions were dropped from left to right (undiluted, 1:10, 1:100, 1:1000).
FIG. 6: Drop test of Gal2_N376F, N376F+M435I and N376Y+M435I in AFY10 after five days at 30°. Several dilutions were dropped from left to right (undiluted, 1:10, 1:100, 1:1000). But on 20 g/l xylose the order was different (undiluted, 1:100, 1:1000, 1:10).
(§1) For easy comparison of growth of different S. cerevisiae strains under various growth conditions a serial dilution spot assay was performed. Cells were grown in liquid culture to exponential phase in appropriate medium, collected by centrifugation (2000×g, 2 min), washed twice with sterile water and then resuspended to an OD600 of 1.0 in selective medium without carbon source. From this cell suspension a ten-fold serial dilution was prepared in selective medium (four dilution steps). 6 μl of each cell suspension were spotted on plates of the media to be examined and allowed to dry. Plates were incubated at 30° C.
To characterize the different constructs which all were verified by sequencing they were transformed together with vector YEp181_pHXT7-optXI_Clos into competent AFY10 cells and drop tests were performed.

[4] = system: EBY.VW4000; test: Serial dilution drop test on glucose and galactose media
Description: The transformants were cultivated in 5 ml SCM-ura with 20 g/l maltose at 30°, washed with water and adjusted to an OD600 of 1. Thereof it followed a serial dilution. 5 μl were dropped onto the respective media and it was incubated for three days at 30°. As a control for the dilution SCM-ura with 20 g/l maltose was taken. The cells of the mutated transporters were dropped onto SCD-ura with 0.2% and 2% glucose, as well as SCG-ura with 0.2% and 2% D-galactose to test their functionality. Furthermore the wild type, Gal2_ep3.1 and Gal2_N376Y were used for comparison.
FIG. 4: Drop test of Gal2_M435I in EBY.VW4000 after three days at 30°. Several dilutions from left to right were dropped (undiluted, 1:10, 1:100, 1:1000).
as §1

[5] = system: AFY10X; test: epPCR-screening by replica-plating on xylose plus glucose media; settings: media with 1% xylose and increasing amounts of glucose (up to 5%)
Text: Mutants of GAL2 were created using error-prone PCR (epPCR) and then screened in AFY10X as described in Farwick et al. (2014). This method is faster than evolutionary engineering experiments and more often generates multiple mutations per ORF that might have a unique combined effect. On the downside, there might be more silent mutations among the increased number of mutations which might aggravate the identification of the relevant mutations in each clone. The GAL2 ORF was amplified in an epPCR with short amplification primers, applying various mutation rates, and the purified fragments then again amplified for recombinational cloning in a second PCR. Functional plasmids were in vivo assembled from PCR fragments and linearized p426H7 vector directly in the screening strain AFY10X. Transformants were plated out on selective SCE2 plates and subsequently screened. Colonies were tested for improved growth on media with 1% xylose and increasing amounts of glucose (up to 5%) by replica-plating. Seven clones were selected and grown in SCE2 ura^− leu^−+G418+2-DOG and samples of these cultures streaked out on plates for comparison and to obtain single colonies. Five of these seven clones were confirmed to grow on xylose glucose media. The plasmids of two clones were successfully isolated as described (yeast DNA was digested with EcoRI) and sequenced.

[6] = start 0.6% xylose with 2% glucose
[7] = drop test, FIG. 4, versus wild-type Gal2

B1: N376Y + M435I: Gal2 variant with amino acid substitutions N376Y and M435I (protein, UniProt P13181 1-574, looked up, variant N376Y M435I)
Galactose transporter: MAVEENNMPVVSQQPQAGEDVISSLSKDSHLSAQSQKYSNDELKAGESGSEGSQSVPIEIPKKPMSEYVTVSLLCLCVAFGGFMFGWDTGTISGFVVQTDFLRRFGMKHKDGTHYLSNVRTGLIVAIFNIGCAFGGIILSKGGDMYGRKKGLSIVVSVYIVGIIIQIASINKWYQYFIGRIISGLGVGGIAVLCPMLISEIAPKHLRGTLVSCYQLMITAGIFLGYCTNYGTKSYSNSVQWRVPLGLCFAWSLFMIGALTLVPESPRYLCEVNKVEDAKRSIAKSNKVSPEDPAVQAELDLIMAGIEAEKLAGNASWGELFSTKTKVFQRLLMGVFVQMFQQLTGNNYFFYYGTVIFKSVGLDDSFETSIVIGVVYFASTFFSLWTVENLGHRKCLLLGAATMMACMVIYASVGVTRLYPHGKSQPSSKGAGNCIIVFTCFYIFCYATTWAPVAWVITAESFPLRVKSKCMALASASNWVWGFLIAFFTPFITSAINFYYGYVFMGCLVAMFFYVFFFVPETKGLSLEEIQELWEEGVLPWKSEGWIPSSRRGNNYDLEDLQHDDKPWYKAMLE
[1]; 0.6% xylose
  growth rate: 0.014 h⁻¹
[1]; 0.6% xylose with 2% glucose
  growth rate: 0.015 h⁻¹
[1]; [6]
  xylose concentration of the supernatant decreased during the fermentation to: 0.37%
[1]; start 0.6% xylose
  xylose concentration of the supernatant decreased during the fermentation to: 0.35%
[2]; FIGS. 7 and 8
  xylose uptake rate compared to wild type: strongly improved
[2]
  Vmax: 99.61
[3]
  growth on low xylose: better growth
  growth on high xylose: best growth
[3]; 0.2% xylose with 2% glucose
  growth on low xylose with glucose: better growth
[3]; 1% xylose with 4% glucose (10 g/l xylose plus 40 g/l glucose)
  growth on xylose with glucose: best growth

B2: Gal2_M435I: M435I exchange introduced into wild-type Gal2 (protein, UniProt P13181 1-574, looked up, variant M435I)
Galactose transporter: B1 Galactose transporter with Y376N
[3]
  growth on low xylose: No growth
  growth on high xylose: slow growth
[3]; FIG. 5
  growth on xylose-glucose mixtures: No growth
[3]; drop test, FIG. 5
  uptake of xylose: reduced
[4]; 2 g/l and 20 g/l glucose
  growth on glucose: much slower
[4]; [7]
  uptake of galactose: no effect
  uptake of glucose: strongly reduced

B3: Gal2_ep3.1: Gal2 epPCR clone with mutations M107K V239L N376Y M435I L558S (protein, UniProt P13181 1-574, looked up, variant M107K V239L N376Y M435I L558S)
Galactose transporter: B1 Galactose transporter with M107K, V239L, L558S
[5]
  growth on medium (xylose + glucose): 1 + 5

B4: Gal2 WT: wild-type protein Gal2 of S. cerevisiae CEN.PK2-1C, SEQ ID NO: 1, 574 amino acids, galactose transporter (protein, UniProt P13181 1-574, looked up)
Galactose transporter: B1 Galactose transporter with Y376N, I435M
[1]; [Xyl+Glu]: 0.6% xylose with 2% glucose
  OD600 tend: 0,52
[1]; [Xyl]: 0.6% xylose without glucose
  OD600 tend: 0,86
[1]; [6]
  xylose concentration of the supernatant decreased during the fermentation to: 0.53%
[2]
  Vmax: 63.43
[3]
  growth on low xylose: best growth
